We go through one protein from article doi:10.1101/2023.05.11.540447v1.

As usually defined, the Km is the concentration of substrate that gives half-maximal velocity.

Substrate in data set [1]: CC(=O)N[C@H]1[C@@H](OP(=O)(O)OP(=O)(O)OC[C@H]2O[C@@H](n3ccc(=O)[nH]c3=O)[C@H](O)[C@@H]2O)O[C@H](CO)[C@@H](O)[C@@H]1O
Put plainly: purified protein. The note with it: UDP-GlcA fixed at 2.5 mM, Mg2+, 37 °C, GDN detergent.

Substrate in data set [2]: O=C(O)[C@H]1O[C@H](OP(=O)(O)OP(=O)(O)OC[C@H]2O[C@@H](n3ccc(=O)[nH]c3=O)[C@H](O)[C@@H]2O)[C@H](O)[C@@H](O)[C@@H]1O
Put plainly: purified protein. The note with it: UDP-GlcNAc fixed at 2.5 mM, Mg2+, 37 °C, GDN detergent.

B1: Xl-HAS-1 (Xenopus laevis) (protein)
chain: MKEKAAETMEIPEGIPKDLEPKHPTLWRIIYYSFGVVLLATITAAYVAEFQVLKHEAILFSLGLYGLAMLLHLMMQSLFAFLEIRRVNKSELPCSFKKTVALTIAGYQENPEYLIKCLESCKYVKYPKDKLKIILVIDGNTEDDAYMMEMFKDVFHGEDVGTYVWKGNYHTVKKPEETNKGSCPEVSKPLNEDEGINMVEELVRNKRCVCIMQQWGGKREVMYTAFQAIGTSVDYVQVCDSDTKLDELATVEMVKVLESNDMYGAVGGDVRILNPYDSFISFMSSLRYWMAFNVERACQSYFDCVSCISGPLGMYRNNILQVFLEAWYRQKFLGTYCTLGDDRHLTNRVLSMGYRTKYTHKSRAFSETPSLYLRWLNQQTRWTKSYFREWLYNAQWWHKHHIWMTYESVVSFIFPFFITATVIRLIYAGTIWNVVWLLLCIQIMSLFKSIYACWLRGNFIMLLMSLYSMLYMTGLLPSKYFALLTLNKTGWGTSGRKKIVGNYMPILPLSIWAAVLCGGVGYSIYMDCQNDWSTPEKQKEMYHLLYGCVGYVMYWVIMAVMYWVWVKRCCRKRSQTVTLVHDIPDMCV
For B1, the values for the Km in data set [1] and in data set [2] were 470 µM and 370 µM, respectively.
